One substance from paper PMC11097922 can be followed below.

This test addresses 220 kDa ankyrin-B-GFP. Description: proximity ligation.

In the case of “NaV1.2 II-III loop-3xHA (wild type) (from UniProt Q99250 991-1211) (domain or fragment)”, the PLA signal was determined as 11.6 a.u.
